According to the nanobody polyreactivity screen of Harvey et al. (2022):

Test: yeast display, Sf9 membrane polyspecificity reagent, FACS + sequencing; frameworks hold sequencing errors
Outline: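 Galactose induction of a Saccharomyces cerevisiae BJ5465 synthetic nanobody display library ran 36–48 hours. The cells were then stained for 1 hour at 4 °C with 10% biotinylated, detergent-solubilized Sf9 membrane reagent, pulled down on streptavidin microbeads and FACS-sorted into low and high (top ~1%) gates on expression and reagent-binding fluorescence. Labels for polyreactivity follow the gate of origin.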

Sequence | polyreactivity (PSR sort gate)
QVQLVESGGGLVQAGGSLRLSCAASGRIFPVYAMGWYRQAPGKERELVATITSRTGRTYYADSVKGRFTISRDNAKNTVYLQMNSLIPEDTAVSYCAARGYYSAPGYGYWGQGTQVTVSS | high polyreactivity
QVQHVESGAGLVQAGGSLRLSCAASGRTFYYYAMGWYRQAPGKERELVAAISTNGGSTSYADSVKGRFTISRDNAKNTVYLQMNSLKPEDSAVYYSAAYYRTPTDVEYDYWGQGTQVTVSS | high polyreactivity
QVQLVESGGGSVQAGGSLRLSCAASGSTFRYYAMGWYRQAPGKERELVARITSRAGRTYYADSVKGRFTISRDNAKNTVYLQMNSLKPEDTAVYYCNTRDFSGYVHALSLYDYWGQGTQVTVSS | high polyreactivity
QVQLVESGGGLVQAGGSLRLSCAASGRIFFANTMGWYRQAPGKERELVAAISLSSGTTYYADSVKGRFTISRDNAKNTVYLQMNSLKPDETAVYYCAARGYSHVASRLYYYWGQGTQVTVSS | high polyreactivity
QVQLVESGGGLVQAGGSLRLSCAASGSIVYPYAMGWNRQAPGKERELVAAITGHGGSTYYADSVKGRFTISRDNAKNTVYLQMNSMKPEDTAVYYCAAYRVVYSDAYYYWGQGTQVTVSS | low polyreactivity
QVQLVESGGGLVQAGGSLRLSCAASGLTFSYYTMGWYRPAPGKERELVAAITSSSGRTYYADSVKGRFSISRDNAKNTVYLQLNSLKPEDTAVYYCAADRWYREYDYWGLGTQVTVSS | low polyreactivity
QVQLVESGGGLVQAGGSLRLSCAASGSIFTHYAMGWYRQAPGTERELVAGITSSGGSTYADSVKGRFTISRDNAKNTVYLQMNSLKPEDTAVYYCAAEQLRSRLIEYDYWRQGTQVTVSS | low polyreactivity
QVQLVESGGGLVQAGGSLRLSCAASGRTLYGNAMGWYRQAPGKEREFVAAITRSGGTTYYADSVKGRFTISRDNAKNTVYLQMNSLKPEDTAVYYCATAFRGYTGLFYWGQGTQVTVSS | high polyreactivity
QVQLVESGGGLVQAGGSLRLSCAASGSTFYGYAMGWYRQAPGKERELVAAISSNGDSTYYADSVKGRFTISRDNAKNSVYLQMNILKPEDTAVYYCATDPEGSTGGGYEFWGQGTQVTVSS | low polyreactivity
QVQLVESGGGLVQAGGSLRLSCAASGRTFTYYAMGWYRQAPGKERELVATIRSGGTTNYADSVKGRFTISRDNAKNTVYLQMNSLKPEDTAVYYCARVLSYVWYYRDPYQYPDYDYWGQGTQVTVSS | low polyreactivity
QVQLVESGGGLVQAGGSLRLRCASSGGIFYLNAMGWYRQAPGKERELVAAITGTGGNTYYADSVKGRFTISRDNAKNTVYLQMNSLKPEDTGVYYCNVSSRRLRGLDYWGQGTQVSVSS | low polyreactivity
QVQLVESGGGLVQAGGSLRLSCAASGYIFHRYAMGWYRQAPGKEREFVAAIRWSGGSTYYADSVKGRFTISRDNAKNTVYLQMNSLKPEDTAVYYCAADKYVLGYYYGQYDYWGQGTQVTVSS | low polyreactivity
QVQLVESGGGLVQAGGSLRLSCAASGRIFYYNAMGWYRQAPGKERELVAAISYRGASTYYADSVKGRFTISRDNAKNTVYLQMNSLKPEDTAVYYCAAVTISKGFYPYDYWGQGTQVTVSS | high polyreactivity
QVQLVESGGGLVQAGGSLRLSCAASGSTLSQNAMGWYRQAPGKEREFVADISGSGDSTYYADSVKGRFTISRDNAKNTVYLQMNSLKPEDTAVYYCAARSLVQDHAYGYNYWGQGTQVTVSS | low polyreactivity
QVQLVESGGGLVQAGGSLRLSCAASGRTFNRNAMGWYRQAPGKERELVAAISWGGSRTYYADSVKGRFTISRDNAKNTVYLQMNSLKPEDTAVYYCAVDGFRGRSHGANDYWGQGTQVTVSS | high polyreactivity
QVQLVESVGGLVQAGGSLRLSCAASGSIFYNYAMGWYRQAPGKERELVAAISSNGGSTYYADSVKGRFTISRDIAKNTVYLQMNSLKPEDTAVYYCAARYWYPYWYRYSAYDYWGQGTQVTVSS | high polyreactivity
QVQLVESGGGLVQAGGSLPLSCAASASIFSYYDMGWYRQAPGKERELVAAISWSGGSTYYADSVKGRFTISRDNAKNTVYLQMNSLKPEDTAVYYCAAGTYPYYWGQGTQVTVSS | low polyreactivity
QVQLVESGGALGQAGGSLRLSCAASGFTFRIYDMGWYRHAPGKETELVAAITNGGSTDYADSVKGRFTISRDNAKNTVYLQMNSLKPEDTAVYYCAADVTYQVYDLVSVWYDYWGQGTQVTVSS | low polyreactivity
QVQLVESGGGLVQAGGSLRLSCAASGSTFSGNAMGWYRQAPGKERELVAAITSSGGSTYYADSVKGRFTISRDTAKNTVYLQMNSLKPEDTAVYYCAAKSRRTRRSYYWGQGTQVTVSS | high polyreactivity
QVQLVESRGRLVQAVGSLRLSCAASGFTFDSYPMGWYRHAPRKEMEFVAGITDLGDYTYYADSVKGRFTISRDTAKNTVFLQMKSLKPEDTEVYYCNDTTGYKHAWRCENGYWGQGTQVTVSS | low polyreactivity
QVQLVESGGGLVQAGGTLRLSCAASGRIFWAYAMGRYRQAPGKERELVAAITRSGGYTRYADSVKGRFTISRDNAKNTVYLLMNSLKPEDTAVYYCNAYAPRQLYGYDYWGQGSQVTVSS | high polyreactivity
QVQLVESGGGLVQAGGSLRVSCAASGSIFYQYAMGWYRQAPGKERELVAAISTTGGRTYYADSVKGRFTISRDNAKNTVYLQMNSLKPEDTAVYYCAAYKYYGYDYWGQGTQVTVSS | high polyreactivity

Sequence | polyreactivity (PSR sort gate)
QVQLVESGGGLDQAGGSLRLIFAASGRTFYRYAMGLYRQAPGKERELVAAISVRGGSTYYADSVKGRFTISRDNAKNTVYLQMNSLKPEDTAVYYCDAEYVAPWYIGLEVTRLIYWGQGTQVTVSS | high polyreactivity
QDQLVESGGGLVQAGGSLRLSCAASGSIFGVYAMGWNRQAPGKERELVAAITRGGRTYYADSVKGRFTISRDNAKNTVYLQMNCLKPEDTAVYYCAALPLRERYGYWGQGTQVTVSS | high polyreactivity
QVQLVESGGGLVQAGGSLRLSCAASGSISVVNMGWYRQPPRKERQFVASITSSGSTTYADSVKGRFTISRDNAKNTVYLQMNSLKPEDTAVYYCAADVGTDYTYQHPAGAAYDYWGEGTQVTVSS | low polyreactivity
QVQLVESGGGLVQAGGSLRLSCAASGSTSTQYAMGWYRQAPGKERELVAGITQSGGSTYYADSVKGRFTISRDNAKNTVYLQMNSLKPEDTAVYYCAAPPGYTGRYDYYYWGQGTQVTVSS | high polyreactivity
QVQHVETGGGLVQAGGSLRLSCAATGYTLYRYPMGWYRQAPGKERELVARISYRTGSTYYADSVKGRFTISRDKAKNTVYLQMNSLKPEDTAVYYCAKYPGISGYKYWGQGTQVTVSS | high polyreactivity
QVQLQESVGGLVQAGGSLRLSCAASGNIFPTHRMGWYRQAPGKELEFVATISDGGSTNYADSVKGRFTISRDHAKNTVYLQMNSLKPEDTAVYYCAVLSLGRLRHYYWGQGTQVTVSS | low polyreactivity
QVQLVESGGGLVQAGGSLRLSCAASGIIFAYNAMGWYRQAPGKERELVATITDSGGSTSYADSVKGRFTISRDNAKNTVYLQMNSLKPEDTAVYYCAVLPVYWYWRNYVYLSGYDYWGQVTQVTVSS | low polyreactivity
QVQLVESGGGLVQAGGSLRLSCAASGSIFGTNAMGWYRQAPGKERELVAVISDGGSTYYADSVKGRFTISRDNAKNTVYLQMNSLKPEDTAVYYCNTPLESPFYSRFGTTESDHWGQGTQVTVSS | low polyreactivity
QVQLVESGGGLVQAGGSLRLSCAASGRTFNWNAMGWYRQAPGKERELVAAITSGGSTYNADSVKGLFTISRDNAKNTVYLQMNSLKPEDTAVYYCAGRINFYRSKYYYWGQGTQVTVSS | high polyreactivity
QVQLVESGGGLVQAGGSLRLSCAASGIIFPSYAMGWYRQAPGKERELVAGISSGGNTYYADSVKGRFTISRDNAKNTVYLQMNSLKPEDTAVYYCATAFAIWGLYYGYDYWGQGTQVTVSS | low polyreactivity
QVQLVESGGGLVQAGGSLRLSCAASGSTFRWYAMGWYRQAPGKERELVAAIRRIGSRTYADSVKGRFTISRDNAKNTVYLQMNSLKPEDTAVYYCATRYKYTGYDYWGQGTQVTVSS | high polyreactivity
QVQLVESGGGLVQAGGSLRLSCAASGRIFYGNPMGWYRQAPGKERELVAAISSGGGSTYYADSVKGRFTISRDNAKNTVYLQMNSLKPEDTAVYYCAADPVHRFPGTGGYWGQGTQVTVSS | low polyreactivity
QVQLVESGGGLVQAGGSLRLSCAASGSIFKYYTMGWYRQAPGKERELVARISTRGDSTYYADSVKGRFTISRDNAKNTVYLQMNSLKPEDTAVYYCNARPGSRRSSTWGMDYWGQGTQVTVSS | high polyreactivity
QGQLVESGGGLVQAGGSLRLSCAASGSTFVYYARGWYRQAPGKEREMVAAIRYSGASTYYADSVKGRFTISRDNAKNTVYLQMNSLKPEDTAVYYCAAQPTTRRVPRFSSRARHYYWGQGTQVTVSS | high polyreactivity
QVQLVESGGGLVQAGGSLRLSCAASGSTFVWNAMGWYRQAPGKERELVASISSSGDRTYYADSVKGRFTISRDNAKNTVYLQMNSLKPEDTAVYYCAARYTRADYDYLGQGTQVTVSS | high polyreactivity
QVQLVESGGGLVQAGGSLRLICAASGFIFRSYAMGWYRQAPGKEREFDAGINRRGGSTYYADSVKGRFTISRDNAKNSVYLQMNILKPEDTAVYYCAAVYYNRVDYWGQGTQVTVSS | high polyreactivity
QVQLVESGGGLVQAGGSLRLSCAASGFIFTGYAMGWYRQAPGKERELVAAISWTGDSTYYADSVKGRFTISRDNAKNTVYLQMNSLKPEDTAVYYCAARSYRKPSSRRFDYWGQGTQVTVSS | low polyreactivity
QVQLVESGGGLVQAGGSLRLSCAASGRTFLVYTMGWYRQAPGKERELVAAISWSDGSTYYADSVKGRFTISRDNAKNTVYLQMNSLKPEDTAVYYCAARRTGYLYRYGYWGQGTQVTVSS | low polyreactivity
QVQLVESGGGLVHAGGSLRLSCAASGRTFNWNAMGWYRQEPGKEREFVASINGGGSSYYADSVKGRFTISRDNAKNTVYLQMNSLKPDDTAVYYCAAPWVGTFVSGRCYYWGQGTHVTVSS | low polyreactivity
QDQLVESGGGLVQAGGSLRLSCAASRRTFSNYAMGWYRPAPGKERELVAAISGTGDNTYYADSVKVRFTISRDNANYTVYLQMNSLKPEDTAVYYCNTVYYGWPRCYGYWGQGTQVTVSS | high polyreactivity
QVQLVESGGGLVQAGGSLRLSCAASGSTFRGNAMGWYRQAPGKERELVAAISRRGGSTNYADSVKGRFTISRDNAKNTVYLQMNSLKPEDTAVYYCNKGDYRSAYRHIEYGYWGQGTQVTVSS | low polyreactivity
